US6677299B2, “Method to increase cerebral blood flow in amyloid angiopathy” (The Trustee of Columbia University in the city of New York, priority 2000, dated 2004)

Molecular target: T1, RAGE (Mus musculus, UniProt Q62151)
T1 construct: The first set of studies employed synthetic Aβ infused in to wild-type mice; from tissue; host or cells: brain vasculature (blood-brain barrier) of living wild-type mice
Test: Brain perfusion model: Aβ binding to brain capillaries and transport across the BBB
Assay type: in vivo, mice
Procedure: FIGS. 1A-1F. […] FIG. 1A and bFIG.
Brain perfusion model. […] Details of the extracorporeal perfusion circuit were as reported elsewhere. ^22,23,38,39 At the start of the perfusion, the contralateral common carotid artery was ligated, and both jugular veins severed to allow free drainage of the perfusate. Brains were perfused with oxygenated perfusion medium at a flow rate of 1 ml/min by peristalitic pump. […] Perfusion pressure and animal's own arterial blood pressure were continuously monitored. Blood gasses pO2, pCO2 and pH and electrolytes in the arterial inflow and in animal's own blood were monitored.
Injection of radioisotopes for transport studies. […] When the effects of different unlabeled molecular reagents were tested, those were injected 5 min prior to tracers injection and than simultaneously with radiolabled ligands. At predetermined times within 10 min mice were sacrificed by decapitation, and brain tissue prepared for radioactivity analysis. TCA and HPLC analysis as we described were used to determine molecular forms of uptake of radiolabeled Aβ by the BBB.^22,23 Capillary-depletion technique was used to separate micravascular pellet from capillary-depleted brain to quantify in vivo binding to microvessels vs. transport into brain parenchyma, as we reported.^22, 23
Mathematical modeling for transport studies. […] The rate of entry (KIN) is computed from eq. 1: d[CIN (TEST-MOLEUCLE)−CIN (ALBUMIN)]/dt=KINCPL−KOUT[CIN (TEST-MOLECULE)−CIN (ALBUMIN)], where KOUT is exit or efflux transfer coefficient, and R is the steady state or equilibrium ratio. Eq. 1 is integrated to give [CIN (TEST-MOLECULE)−CIN (ALBUMIN)]/CPL=R (1−e^−KOUT T) (eq. 2). R is the steady state ratio, and the ratio KIN/KOUT at infinite time, and T is infusion time. Numerical values for KOUT may be obtained from the slope of the plot of ln (R−[CIN (TEST-MOLECULE)−CIN (ALBUMIN)]/CPL) (eq. 3) against T, using the equation KOUT=−ln(R−[CIN (TEST-MOLECULE)−CIN (ALBUMIN)]/CPL)/T (eq. 4). Finally, the value for KIN is derived by substituting the number for KOUT in: KIN=R KOUT (eq. 5). When tracer uptake remains linear over studied period of time, the exist constant approaches zero, and KIN=d[CIN (TEST-MOLEUCLE)−CIN (ALBUMIN)]/dt CPL. […] Advanced graphics software and the MLAB mathematical modeling system (as above) will be used to obtain graphic plots and compute transfer coefficients.

[1] = circulating 125I-labeled peptide, mice and guinea pigs
[2] = reagent in arterial inflow, 125I-Aβ 4 nM, 10 min

T1 sequence (Q62151 23-402): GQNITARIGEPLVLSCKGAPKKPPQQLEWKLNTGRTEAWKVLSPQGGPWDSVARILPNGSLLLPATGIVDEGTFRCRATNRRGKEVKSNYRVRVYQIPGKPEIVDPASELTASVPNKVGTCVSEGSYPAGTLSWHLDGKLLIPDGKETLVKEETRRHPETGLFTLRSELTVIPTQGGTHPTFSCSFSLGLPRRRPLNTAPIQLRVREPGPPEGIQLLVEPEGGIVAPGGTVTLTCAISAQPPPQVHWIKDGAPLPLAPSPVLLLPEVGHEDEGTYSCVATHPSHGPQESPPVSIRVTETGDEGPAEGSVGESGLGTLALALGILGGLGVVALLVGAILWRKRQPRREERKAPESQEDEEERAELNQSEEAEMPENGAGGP

| Substance | binding of the peptide to brain microvessels [1] | transport of the peptide across the BBB [1] | effect on Aβ transport into brain (BBB transport of Aβ) [2] | effect on binding of Aβ to brain microvessels [2] |
| --- | --- | --- | --- | --- |
| Aβ1-42: synthetic amyloid-β peptide 1-42, human form | absence of its significant binding | somewhat slower, but significant | – | – |
| fucoidan | – | – | did not affect | did not affect |
